Test results reported in patent publication US20240376198A1 (INHIBRX, published 2024).
Residue numbers refer to the chain shown, from its start. Numbers in names are those of the source. Like-named read-outs stand apart in the source and are kept apart here.

What was measured:
[1] = molecular target: T1, human NKp46 (human, UniProt O76036 22-304); test: flow cytometry on HEK-293F cells transfected with full-length human NKp46, bivalent VHH with homodimeric Fc, anti-hFc-647 secondary
T1 construct: also called CD335; NCR1
Procedure: (§1) Binding of NKp46-binding polypeptides formatted as VHH-Fc fusion proteins was assessed by flow cytometry. An IgG1-Fc lacking a hinge, or a homodimeric Fc (FIG. 1I-1J) was used (the Fc lacking a hinge is annotated as Fc*). HEK293F cells were transiently transfected with a plasmid encoding full-length human NKp46, cynomolgus NKp46, or mouse NKp46, followed by an IRES and GFP. Transfected cells expressing NKp46 and GFP were used to measure binding of the polypeptides. The transfected cells were plated in a 96-well plate at 30,000 cells per well in FACS buffer (PBS, 1% BSA, 0.1% NaN₃, pH 7.4). Untransfected HEK293F cells were used as a NKp46-negative control and plated at 30,000 cells per well in a separate plate. Test polypeptides were then diluted to two times the final concentration of 1000 nM, and a 3-, 4-, or 5-fold, serial dilution was made. A final column was left with only FACS buffer as a secondary-only control. Test article dilutions were added to an equal volume of cells, and assay plates were incubated for 30 minutes at 4° C. […] After one additional wash with 150 μL of FACS buffer, bound antibody was detected by flow cytometry. […] NKp46 transfected cells were gated on as GFP positive, and polypeptide binding was measured as median fluorescence at 647 nm.

[2] = molecular target: T1, human NKp46; test: flow cytometry, HEK293F cells transfected with human NKp46
Procedure: (§2) Binding of NKp46-binding polypeptides formatted as VHH-Fc fusion proteins was assessed by flow cytometry. An IgG1-Fc lacking a hinge, or a homodimeric Fc (FIG. 1I-1J) was used (the Fc lacking a hinge is annotated as Fc*). HEK293F cells were transiently transfected with a plasmid encoding full-length human NKp46, cynomolgus NKp46, or mouse NKp46, followed by an IRES and GFP. Transfected cells expressing NKp46 and GFP were used to measure binding of the polypeptides. The transfected cells were plated in a 96-well plate at 30,000 cells per well in FACS buffer (PBS, 1% BSA, 0.1% NaN₃, pH 7.4). Untransfected HEK293F cells were used as a NKp46-negative control and plated at 30,000 cells per well in a separate plate. Test polypeptides were then diluted to two times the final concentration of 1000 nM, and a 3-, 4-, or 5-fold, serial dilution was made. A final column was left with only FACS buffer as a secondary-only control. Test article dilutions were added to an equal volume of cells, and assay plates were incubated for 30 minutes at 4° C. After washing twice with 150 μL. of FACS buffer per well, the cells were resuspended in FACS buffer with α-hFc-647 secondary diluted 1:1000-2000. Assay plates were then left to incubate at 4° C. for 20-30 minutes. After one additional wash with 150 μL of FACS buffer, bound antibody was detected by flow cytometry. Flow cytometric detection was performed on an Intellicyt iQue Plus or Accuri iQue. NKp46 transfected cells were gated on as GFP positive, and polypeptide binding was measured as median fluorescence at 647 nm.

[3] = molecular target: T1, human NKp46; test: flow cytometry, HEK293F cells transfected with human NKp46; Table 3 experiment; HEK-293 transfected with human NKp46
Procedure: as §1

[4] = molecular target: T2, cynomolgus NKp46 (cynomolgus monkey, UniProt Q95JB9 22-306); test: flow cytometry, HEK293F cells transfected with cyno NKp46
T2 construct: also called cyno NKp46; cynomolgus monkey NKp46
Procedure: as §2

[5] = molecular target: T1, human NKp46; test: flow cytometry, HEK293F cells transfected with human NKp46; remark: listed apart in the source
Procedure: as §2

[6] = molecular target: T3, mouse NKp46 (mouse, UniProt Q8C567 17-325); test: flow cytometry, HEK293F cells transfected with mouse NKp46
T3 construct: whole, on cells
T3 sequence (looked up): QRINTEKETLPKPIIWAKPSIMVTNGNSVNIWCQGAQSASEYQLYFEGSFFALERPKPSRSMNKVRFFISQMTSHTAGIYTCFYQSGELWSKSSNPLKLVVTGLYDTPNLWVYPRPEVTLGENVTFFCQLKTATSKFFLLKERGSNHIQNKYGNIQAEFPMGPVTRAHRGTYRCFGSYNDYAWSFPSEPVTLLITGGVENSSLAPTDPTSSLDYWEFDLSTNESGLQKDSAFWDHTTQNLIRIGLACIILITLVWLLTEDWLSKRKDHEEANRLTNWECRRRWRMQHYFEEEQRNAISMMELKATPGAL
Procedure: as §2

[7] = molecular target: T2, cynomolgus NKp46; test: flow cytometry, HEK293F cells transfected with cyno NKp46; remark: listed apart in the source
Procedure: as §2

[8] = molecular target: T3, mouse NKp46; test: flow cytometry, HEK293F cells transfected with mouse NKp46; remark: listed apart in the source
Procedure: as §2

[9] = molecular target: T3, mouse NKp46; test: flow cytometry on HEK-293F cells transfected with full-length mouse NKp46, anti-hFc-647 secondary
Procedure: as §1

[10] = molecular target: IL-2 receptor (human); test: cell-based or functional assay

T1 sequence (O76036 22-304 Q82K): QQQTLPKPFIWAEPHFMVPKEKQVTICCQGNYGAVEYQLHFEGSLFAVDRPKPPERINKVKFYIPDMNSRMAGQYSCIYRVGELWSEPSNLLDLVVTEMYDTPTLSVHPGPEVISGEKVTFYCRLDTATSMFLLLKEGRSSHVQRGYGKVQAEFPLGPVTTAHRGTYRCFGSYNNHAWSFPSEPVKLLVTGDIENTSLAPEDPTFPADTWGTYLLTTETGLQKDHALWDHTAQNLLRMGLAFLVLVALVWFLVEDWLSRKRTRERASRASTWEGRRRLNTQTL
T2 sequence (Q95JB9 22-306 limits assumed): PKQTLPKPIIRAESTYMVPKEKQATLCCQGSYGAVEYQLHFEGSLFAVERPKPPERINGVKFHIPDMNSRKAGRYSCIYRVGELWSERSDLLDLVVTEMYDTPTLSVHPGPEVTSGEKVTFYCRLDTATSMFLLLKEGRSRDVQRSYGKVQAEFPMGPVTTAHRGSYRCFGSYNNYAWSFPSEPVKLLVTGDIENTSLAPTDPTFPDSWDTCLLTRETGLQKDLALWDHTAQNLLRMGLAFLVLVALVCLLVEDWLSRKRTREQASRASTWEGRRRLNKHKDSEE

B1: NKp46-hz5D7v17-Fc (Fc fusion)
chain: EVQLVESGGGEVQPGGSLRLSCAASGRTFASAAMGWFRQAPGKEREFVAAISRSDDTYYAESVKGRFTISRDNAKNTVYLQMSSLRAEDTAVYYCAAVVPTYGSNIYVHSAAYNYWGQGTLVTVRPDKTHTCPPCPAPGGPSVFLFPPKPKDTLMISRTPEVTCVVVDVSHEDPEVKFNWYVDGVEVHNAKTKPREEQYNSTYRVVSVLTVLHQDWLNGKEYKCKVSNKALPAPIEKTISKAKGQPREPQVYTLPPSRDELTKNQVSLTCLVKGFYPSDIAVEWESNGQPENNYKTTPPVLDSDGSFFLYSKLTVDKSRWQQGNVFSCSVMHEALHNHYTQKSLSLSPG
EC50 (read off the curve) [1]: ~300 pM | Kd [2]: 295 pM

B2: NKp46-hz5D7v3-Fc* (Fc fusion)
chain: EVQLVESGGGEVQPGGSLRLSCAASGRTFASAAMGWFRQAPGKEREFVAAISRSDDTYYAESVKGRFTISRDNAKNTVYLQMSSLRAEDTAVYYCAAVVPTYGNNIYVHSAAYNYWGQGTLVTVKPGGGGPSVFLFPPKPKDTLMISRTPEVTCVVVDVSHEDPEVKFNWYVDGVEVHNAKTKPREEQYNSTYRVVSVLTVLHQDWLNGKEYKCKVSNKALPAPIEKTISKAKGQPREPQVYTLPPSRDELTKNQVSLTCLVKGFYPSDIAVEWESNGQPENNYKTTPPVLDSDGSFFLYSKLTVDKSRWQQGNVFSCSVMHEALHNHYTQKSLSLSPG
notes: VHH-Fc fusion with an IgG1 Fc lacking a hinge (Fc*); also called NKp46-bz5D7v3-Fc*
Kd [3]: 511 pM | Bmax (MFI) [4]: 19800 MFI | Kd [4]: 773 pM | Bmax (MFI) [5]: 149000 MFI | Kd [5]: 177 pM | Bmax (MFI) [6]: 56500 MFI | Kd [6]: 313 pM | Bmax (MFI) [7]: 51800 MFI | Kd [7]: 726 pM | Bmax (MFI) [8]: 1.17e+06 MFI | Kd [8]: 685 pM | Bmax (MFI) [2]: 1.27e+06 MFI

B3: NKp46-hz5D7v15-Fc* (Fc fusion)
chain: B2 chain with N105A
notes: VHH-Fc fusion with an IgG1 Fc lacking a hinge (Fc*)
Bmax (MFI) [4]: 16400 MFI | Kd [4]: 428 pM | Bmax (MFI) [5]: 143000 MFI | Kd [5]: 237 pM | Bmax (MFI) [6]: 34300 MFI | Kd [6]: 729 pM

B4: NKp46-hz5D7v14-Fc* (Fc fusion)
chain: B2 chain with N104S, N105S
notes: as for B3
Bmax (MFI) [4]: 14300 MFI | Kd [4]: 252 pM | Bmax (MFI) [5]: 138000 MFI | Kd [5]: 158 pM | Bmax (MFI) [6]: 11300 MFI | Kd [6]: 6510 pM | EC50 (read off the curve) [9]: ~8000 pM

B5: NKp46-hz5D7v11-Fc* (Fc fusion)
chain: B2 chain with E61D, N104S, H109Y
notes: as for B3
Bmax (MFI) [7]: 52300 MFI | Kd [7]: 1840 pM | Bmax (MFI) [8]: 723000 MFI | Kd [8]: 1700 pM | EC50 (read off the curve) [9]: ~2000 pM | Bmax (MFI) [2]: 1.05e+06 MFI | Kd [2]: 189 pM

B6: hz5D7v12-Fc xELL-Hole; and hz5D7v12-Fc xELL-Knob-IL2-T3A-H16A-E61R-P65R-D84Y-C125S (cx10454) (Fc fusion)
chain 1: EVQLVESGGGEVQPGGSLRLSCAASGRTFASAAMGWFRQAPGKEREFVAAISRSDDTYYAESVKGRFTISRDNAKNTVYLQMSSLRAEDTAVYYCAAVVPTYGSNIYVHSAAYNYWGQGTLVTVKPGGGGDKTHTCPPCPAPGGPSVFLFPPKPKDTLMISRTPEVTCVVVDVSHEDPEVKFNWYVDGVEVHNAKTKPREEQYNSTYRVVSVLTVLHQDWLNGKEYKCKVSNKALPAPIEKTISKAKGQPREPQVYTLPPCRDELTKNQVSLWCLVKGFYPSDIAVEWESNGQPENNYKTTPPVLDSDGSFFLYSKLTVDKSRWQQGNVFSCSVMHEALHNHYTQKSLSLSPGGSGGSAPASSSTKKTQLQLEALLLDLQMILNGINNYKNPKLTRMLTFKFYMPKKATELKHLQCLERELKRLEEVLNLAQSKNFHLRPRYLISNINVIVLELKGSETTFMCEYADETATIVEFLNRWITFSQSIISTLT
chain 2: EVQLVESGGGEVQPGGSLRLSCAASGRTFASAAMGWFRQAPGKEREFVAAISRSDDTYYAESVKGRFTISRDNAKNTVYLQMSSLRAEDTAVYYCAAVVPTYGSNIYVHSAAYNYWGQGTLVTVKPGGGGDKTHTCPPCPAPGGPSVFLFPPKPKDTLMISRTPEVTCVVVDVSHEDPEVKFNWYVDGVEVHNAKTKPREEQYNSTYRVVSVLTVLHQDWLNGKEYKCKVSNKALPAPIEKTISKAKGQPREPQVCTLPPSRDELTKNQVSLSCAVKGFYPSDIAVEWESNGQPENNYKTTPPVLDSDGSFFLVSKLTVDKSRWQQGNVFSCSVMHEALHNRYTQKSLSLSPG
pSTAT5 EC50 on CD56brightCD16- NK cells [10]: < 80 pM | pSTAT5 EC50 on CD56dimCD16+ NK cells and total NK cells [10]: < 0.4 nM

B7: hz5D7v17-Fc xELL-Hole; and hz5D7v17-Fc xELL-Knob-IL2-T3A-H16A-E61R-P65R-D84Y-C125S (cx11314) (Fc fusion)
chain 1: B6 chain 1 with K125R
chain 2: EVQLVESGGGEVQPGGSLRLSCAASGRTFASAAMGWFRQAPGKEREFVAAISRSDDTYYAESVKGRFTISRDNAKNTVYLQMSSLRAEDTAVYYCAAVVPTYGSNIYVHSAAYNYWGQGTLVTVRPGGGGDKTHTCPPCPAPGGPSVFLFPPKPKDTLMISRTPEVTCVVVDVSHEDPEVKFNWYVDGVEVHNAKTKPREEQYNSTYRVVSVLTVLHQDWLNGKEYKCKVSNKALPAPIEKTISKAKGQPREPQVCTLPPSRDELTKNQVSLSCAVKGFYPSDIAVEWESNGQPENNYKTTPPVLDSDGSFFLVSKLTVDKSRWQQGNVFSCSVMHEALHNRYTQKSLSLSPGK
pSTAT5 EC50 on CD56brightCD16- NK cells [10]: < 80 pM | pSTAT5 EC50 on CD56dimCD16+ NK cells and total NK cells [10]: < 0.4 nM
